Patent publication US20220098310A1 (Alexion, published 2022)

T1: recombinant human ALK2 extracellular domain (Creative Biomart catalog number ACVR1-01H) (human, UniProt Q04771 21-123)
T1 construct: also called ALK2 ECD; ACVR1 ECD
T1 sequence: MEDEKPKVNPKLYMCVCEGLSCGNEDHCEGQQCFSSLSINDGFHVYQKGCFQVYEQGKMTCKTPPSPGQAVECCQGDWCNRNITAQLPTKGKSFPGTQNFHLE

T2: mouse ALK2 expressed on the cell surface of wild-type C2C12 mouse myoblast cells (mouse, UniProt P37172 21-509)
T2 construct: Endogenous ALK2 of C2C12 cells (ATCC CRL-1772); also called murine ALK2; ALK2 on C2C12 cells
T2 sequence: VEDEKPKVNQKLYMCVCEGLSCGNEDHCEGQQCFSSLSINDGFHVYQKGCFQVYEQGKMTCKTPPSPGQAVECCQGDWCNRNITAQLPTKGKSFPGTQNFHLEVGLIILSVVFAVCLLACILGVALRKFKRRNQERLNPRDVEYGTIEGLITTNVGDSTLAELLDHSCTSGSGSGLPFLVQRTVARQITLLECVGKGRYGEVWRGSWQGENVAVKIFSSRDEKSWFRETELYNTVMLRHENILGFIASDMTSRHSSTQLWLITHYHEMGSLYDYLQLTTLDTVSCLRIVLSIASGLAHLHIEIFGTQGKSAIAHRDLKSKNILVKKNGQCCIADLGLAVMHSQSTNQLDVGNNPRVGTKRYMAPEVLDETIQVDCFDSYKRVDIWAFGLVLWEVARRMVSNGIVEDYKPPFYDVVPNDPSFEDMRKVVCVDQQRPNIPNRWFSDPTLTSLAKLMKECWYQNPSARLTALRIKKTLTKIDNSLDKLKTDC


What was measured:
[1] = biological target: T1, recombinant human ALK2 extracellular …; test: SPR (Biacore), JAB0481 captured at high density on anti-mouse IgG chip, ALK2 ECD as analyte, 1:1 Langmuir fit
Protocol: (§1) Anti-mouse IgG was immobilized on carboxymethylated dextran BiaCore sensor chips (CMS, GE Biosciences) using a Mouse Antibody Capture Kit (GE Lifesciences product number BR100838). Two sensors were prepared; one for a “low” density of JAB0481 captured on the sensor and one with a “high” density of JAB0481 captured on the sensor. JAB0481 was diluted to 0.05 mg/ml in HEPES EDTA surfactant buffer (HBS-EP), pH 7.4 and injected onto the mouse antibody capture sensors. The volume of JAB0481 solution injected for the “low” density condition was […], and the volume that was used for the “high” density condition was 30 μL.
(§2) The ALK2 ECD was diluted in HBS-EP buffer and injected over the JAB0481 captured sensors at concentrations ranging from 2000 nM to 250 nM followed by a 300 second association period. This was followed by the injection of HBS-EP buffer and a 500 second dissociation period. Relative response deflection was plotted against time and the data were fitted to curves according to the Langmuir 1:1 binding kinetic model.
(§3) The sensorgrams for the binding of the ALK2 ECD to JAB0481 at low surface density is provided in FIG. 9, while the sensorgrams for the binding of the ALK2 ECD to JAB0481 at high surface density is provided in FIG. 10. Table 2 provides the association and dissociation rates, the dissociation constant, and Chi squared values calculated from the Biacore binding data.

[2] = biological target: T1, recombinant human ALK2 extracellular …; test: SPR (Biacore), JAB0481 captured at low density on anti-mouse IgG chip, ALK2 ECD as analyte, 1:1 Langmuir fit
Protocol: as §1, §2, §3

[3] = biological target: T3, ALK1-Fc (R&D Systems catalog number 370-AL-100) (human, UniProt P37023 22-118); test: bio-layer interferometry (Octet): ALK1-Fc captured on anti-human Fc tips, antibody in solution at 10 ug/mL
T3 construct: extracellular domain; Bought; also called recombinant ALK1-Fc; paralog ALK1; not shown: Fc part (loaded on anti-human Fc tips)
T3 sequence (P37023 22-118): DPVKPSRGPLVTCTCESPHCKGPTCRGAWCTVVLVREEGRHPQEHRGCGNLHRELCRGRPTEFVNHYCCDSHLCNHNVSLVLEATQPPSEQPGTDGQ
Protocol: ALK2-Fc (R&D Systems), ALK2-Fc (Sino Biological catalog number 10227-H03H), and ALK1-Fc (R&D Systems catalog number 370-AL-100) were diluted to 10 μg/mL in 1× kinetics buffer (ForteBio) and loaded onto anti-human Fc tips (ForteBio). After baseline equilibration in kinetics buffer (ForteBio), the sensors were applied to solutions of antibodies JAB0399, JAB0481, and BB5.1 (isotype control mAb) diluted to 10 μg/ml in kinetics buffer. The sensors were then applied to antibody-free kinetics buffer to measure antibody dissociation.

[4] = biological target: T1, recombinant human ALK2 extracellular …; test: SPR (Biacore), antibody captured, ALK2 ECD as analyte
[5] = biological target: T2, mouse ALK2 expressed on the cell …; test: flow cytometry on wild-type C2C12 cells, antibody 2.45 to 5,000 ng/mL and 0 ng/mL, detected with AF488 donkey anti-mouse IgG
Protocol: Anti-ALK2 antibodies were evaluated for binding to ALK2 expressed on the cell surface of mouse myoblast cells (C2C12; ATCC CRL-1772) by flow cytometry. The expression of ALK2 in wild-type C2C12 cells was confirmed by RT-qPCR and by observing the binding of commercially available polyclonal anti-ALK2 antibodies to the cells by flow cytometry (data not shown). […] Loss of ALK2 expression was verified by flow cytometry and genomic sequencing (data not shown).
Wild-type and ALK2 knock-out C2C12 cells were detached from culture flasks using AssayComplete™ Cell Detachment Reagent (DiscoverX) which was used to maintain intact cell membrane morphology. Cells were washed twice with PBS and then re-suspended in PBS. […] Cells were washed once in FACS buffer (5% bovine serum albumin, […] in PBS) re-suspended in blocking buffer (6% BSA in PBS) and incubated on wet ice for 15 minutes. The binding of the anti-ALK2 antibodies to cells was detected with a 1:100 dilution of Alexa Fluor488-conjugated donkey anti-mouse IgG (ThermoFisher catalog number A21202). Cells were then washed twice in FACS buffer, re-suspended in FACS buffer and the binding of anti-ALK2 antibodies determined by flow cytometry using a DxP6 flow cytometer (Cytek).

[6] = biological target: T2, mouse ALK2 expressed on the cell …; test: cell-based or functional assay

Binder	Kd [1]	koff [1]	kon [1]	Kd [2]	koff [2]	kon [2]	binding result [3]	Kd [4]	koff [4]	kon [4]	binding result [5]	IC50, BRE-luciferase reporter assay in C2C12 cells stimulated with BMP9 [6]
JAB0481 (antibody, mouse IgG1, kappa, Murine IgG1/kappa; also called antibody JAB0481; parent mAb JAB0481) heavy: EVQLQQSGAELVRPGASVRLSCTASGFNIKDSLMHWVKQRPEQGLEWIGWIDPEDGETKYAPNFQDKATITAVTSSNTAYLQLSSLTSEDSAIYYCARYTSDYYTMDYWGQGTSVTVSSAKTTPPSVYPLAPGSAAQTNSMVTLGCLVKGYFPEPVTVTWNSGSLSSGVHTFPAVLQSDLYTLSSSVTVPSSTWPSQTVTCNVAHPASSTKVDKKIVPRDCGCKPCICTVPEVSSVFIFPPKPKDVLTITLTPKVTCVVVDISKDDPEVQFSWFVDDVEVHTAQTKPREEQINSTFRSVSELPIMHQDWLNGKEFKCRVNSAAFPAPIEKTISKTKGRPKAPQVYTIPPPKEQMAKDKVSLTCMITNFFPEDITVEWQWNGQPAENYKNTQPIMDTDGSYFVYSKLNVQKSNWEAGNTFTCSVLHEGLHNHHTEKSLSHSPGK light: DIQMTQSPASQSASLGESVTFTCLASQTIGTWLAWYQQKPGKSPQLLIYAATSLADGVPSRFSGSGSGTKFSFKISSLQAEDFASYYCQQLYSTPWTFGGGTKLEIKRADAAPTVSIFPPSSEQLTSGGASVVCFLNNFYPKDINVKWKIDGSERQNGVLNSWTDQDSKDSTYSMSSTLTLTKDEYERHNSYTCEATHKTSTSPIVKSFNRNEC	0.0727 µM	0.00467 s⁻¹	64200 M⁻¹ s⁻¹	0.155 µM	0.00833 s⁻¹	53600 M⁻¹ s⁻¹	no binding (tested: 10 ug/mL)	0.132 µM	0.00516 s⁻¹	39100 M⁻¹ s⁻¹	binds	–
JAB0399 (antibody, mouse IgG1, kappa, Murine IgG1/kappa mAb from phage library; also called antibody JAB0399; mAb JAB0399) heavy: EVQLQQSGAELVRPGASVRLSCTASGFNIKDSLMHWVKQRPEQGLEWIGWIDPEDGETKYAPNFQDKATITAVTSSNTAYLQLSSLTSEDSAIYYCARYTSDYYTMDYWGQGTSVTVSSAKTTPPSVYPLAPGFAAQTNSMVTLGCLVKGYFPEPVTVTWNSGSLSSGVHTFPAVLQSDLYTLSSSVTVPSSTWPSQTVTCNVAHPASSTKVDKKIVPRDCGCKPCICTVPEVSSVFIFPPKPKDVLTITLTPKVTCVVVDISKDDPEVQFSWFVDDVEVHTAQTKPREEQINSTFRSVSELPIMHQDWLNGKEFKCRVNSAAFPAPIEKTISKTKGRPKAPQVYTIPPPKEQMAKDKVSLTCMITNFFPEDITVEWQWNGQPAENYKNTQPIMDTDGSYFVYSKLNVQKSNWEAGNTFTCSVLHEGLHNHHTEKSLSHSPGK light: DIQMTQSPASQSASLGESVTFTCLASQTIGTWLAWYQQKPGKSPQLLIYAATSLADGVPSRFSGSGSGTKFSFKISSLQAEDFASYYCQQLYSTPWTFGGGTKLEIKRADAAPTVSIFPPSSEQLTSGGASVVCFLNNFYPKDINVKWKIDGSERQNGVLNSWTDQDSKDSTYSMSSTLTLTKDEYERHNSYTCEATHKTSTSPIVKSFNRNEC	–	–	–	–	–	–	no binding (tested: 10 ug/mL)	–	–	–	–	–
JAB0501 (antibody, mouse IgG1, kappa, V domains shown) VH: EVQLQQSGAELVRPGASVRLSCTASGFNIKDSLMHWVKQRPEQGLEWIGWIDPEDGETKYAPNFQSKATITAVTSSNTAYLQLSSLTSEDSAIYYCARYTSPYYTMDYWGQGTSVTVSS VL: DIQMTQSPASQSASLGESVTFTCLASQTIGTWLAWYQQKPGKSPQLLIYAATSLADGVPSRFSGSGSGTKFSFKISSLQAEDFASYYCQQVYSTPWTFGGGTKLEIKR	–	–	–	–	–	–	–	0.0245 µM	0.000929 s⁻¹	37900 M⁻¹ s⁻¹	–	0.000204 µM
JAB0505 (antibody, mouse IgG1, kappa, V domains shown, also called antibody JAB0505) VH: EVQLQQSGAELVRPGASVRLSCTASGFNIKDSLMHWVKQRPEQGLEWIGWIDPEDGETRYAPNFQDKATITAVTSSNTAYLQLSSLTSEDSAIYYCARYTSRYYTMEYWGQGTSVTVSS VL: DIQMTQSPASQSASLGESVTFTCLASQTIGTWLAWYQQKPGKSPQLLIYAATSLADGVPSRFSGSGSGTKFSFKISSLQAEDFASYYCQQLYWTPWTFGGGTKLEIKR	–	–	–	–	–	–	–	0.0208 µM	0.000839 s⁻¹	40300 M⁻¹ s⁻¹	–	0.000139 µM
